# Data from US20240182536A1.
# “And” between values parts separate entries of the source, which are not always exact repeats. Identical values can stand only once. Like-named read-outs stand apart in the source and are kept apart here.
# Legend:
# Assay in all cases: cell-based or functional assay
# [1] = target: IL-18 receptors on HEK-Blue IL-18 reporter cells (UniProt Q13478)
# [2] = target: human IL-18 binding protein (human) (UniProt O95998)
# [3] = target: interleukin 18 binding protein (IL-18BP) (UniProt O95998)
# interleukin 18 binding protein (IL-18BP), sequence (O95998 31-194 limits assumed): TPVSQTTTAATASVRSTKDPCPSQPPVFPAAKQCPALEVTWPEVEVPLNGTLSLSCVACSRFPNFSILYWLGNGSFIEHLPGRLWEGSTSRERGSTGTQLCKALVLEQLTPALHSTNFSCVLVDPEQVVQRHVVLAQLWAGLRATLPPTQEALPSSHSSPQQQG
# [4] = target: IL-18 receptors on HEK-Blue IL-18 reporter cells (UniProt Q13478); remark: listed apart in the source
# [5] = target: human IL-18 binding protein (human) (UniProt O95998); remark: listed apart in the source
# [6] = target: T1, IL-18 receptor (IL-18Rα and IL-18Rβ) (UniProt Q13478)
# T1 sequence (looked up) 1: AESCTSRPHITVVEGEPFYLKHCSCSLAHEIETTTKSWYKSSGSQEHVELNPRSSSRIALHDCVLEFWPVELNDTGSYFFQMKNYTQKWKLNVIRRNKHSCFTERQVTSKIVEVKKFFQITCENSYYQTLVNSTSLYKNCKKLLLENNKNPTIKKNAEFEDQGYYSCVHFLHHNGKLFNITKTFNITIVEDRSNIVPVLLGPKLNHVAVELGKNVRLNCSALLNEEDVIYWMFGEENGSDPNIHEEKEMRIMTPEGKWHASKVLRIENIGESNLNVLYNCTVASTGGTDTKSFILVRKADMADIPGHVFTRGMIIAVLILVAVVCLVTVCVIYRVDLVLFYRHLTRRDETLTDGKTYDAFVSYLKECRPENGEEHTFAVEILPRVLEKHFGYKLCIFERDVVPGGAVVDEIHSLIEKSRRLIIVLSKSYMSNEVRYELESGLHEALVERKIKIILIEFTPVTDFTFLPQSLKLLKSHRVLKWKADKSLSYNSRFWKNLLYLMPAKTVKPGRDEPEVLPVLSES
# T1 sequence (looked up) 2: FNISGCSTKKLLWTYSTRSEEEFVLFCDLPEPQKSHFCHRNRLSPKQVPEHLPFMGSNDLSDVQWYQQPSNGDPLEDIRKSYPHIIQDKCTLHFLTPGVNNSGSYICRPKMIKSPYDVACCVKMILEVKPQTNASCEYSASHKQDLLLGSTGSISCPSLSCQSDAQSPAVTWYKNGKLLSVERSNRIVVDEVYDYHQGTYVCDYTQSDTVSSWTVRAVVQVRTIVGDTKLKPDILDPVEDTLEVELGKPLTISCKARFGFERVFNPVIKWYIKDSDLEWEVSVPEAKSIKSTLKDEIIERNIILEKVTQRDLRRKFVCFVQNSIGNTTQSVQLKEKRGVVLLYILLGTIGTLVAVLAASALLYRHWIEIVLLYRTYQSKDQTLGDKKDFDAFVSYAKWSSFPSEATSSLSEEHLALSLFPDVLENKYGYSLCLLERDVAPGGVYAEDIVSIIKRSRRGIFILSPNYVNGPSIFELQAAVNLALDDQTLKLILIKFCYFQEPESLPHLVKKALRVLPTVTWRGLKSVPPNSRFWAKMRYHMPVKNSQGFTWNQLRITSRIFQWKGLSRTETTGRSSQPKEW
# [7] = target: IL-18 binding protein (IL-18BP) (UniProt O95998)
# IL-18 binding protein (IL-18BP), sequence (O95998 31-194 limits assumed): as the sequence (O95998 31-194 limits assumed) above
# human IL-18 binding protein (human), sequence (O95998 31-194 limits assumed): as the sequence (O95998 31-194 limits assumed) above
# WT-hIL-18-monoFc (Fc fusion), sequence (chain): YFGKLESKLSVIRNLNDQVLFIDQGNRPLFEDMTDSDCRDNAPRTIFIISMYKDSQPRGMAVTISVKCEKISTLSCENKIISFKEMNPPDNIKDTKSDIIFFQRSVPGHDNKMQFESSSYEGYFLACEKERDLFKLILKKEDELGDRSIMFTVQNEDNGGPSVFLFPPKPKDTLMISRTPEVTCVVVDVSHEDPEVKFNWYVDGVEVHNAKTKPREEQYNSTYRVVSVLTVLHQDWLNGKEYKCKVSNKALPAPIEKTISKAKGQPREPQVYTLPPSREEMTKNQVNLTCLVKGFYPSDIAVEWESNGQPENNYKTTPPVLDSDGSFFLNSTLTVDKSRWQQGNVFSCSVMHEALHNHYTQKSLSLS
# WT-monoFc (Fc fusion), sequence (chain): as above
# WT-monoFc (wild-type human IL-18 linked to monoFc) (Fc fusion), sequence (chain): as above
substance,measurement,setting,value
G3T/E6K/K53A-monoFc (Fc fusion),HEK-blue EC50 (pM) - IL-18BP,[1],0.06 pM
same,HEK-blue EC50 (pM) + 300 nM IL-18BP,[2],2.81 pM
G3T/M60K-HSA-his-avi,HEK-blue EC50 (pM) - IL-18BP,[1],0.36 pM
same,HEK-blue EC50 (pM) + 300 nM IL-18BP,[2],4.25 pM
G3T/M60K-monoFc (Fc fusion),HEK-blue EC50 (pM) - IL-18BP,[1],0.21 pM
same,HEK-blue EC50 (pM) + 300 nM IL-18BP,[2],1.78 pM
G3V/M60K-HSA-his-avi,HEK-blue EC50 (pM) - IL-18BP,[1],0.19 pM
same,HEK-blue EC50 (pM) + 300 nM IL-18BP,[2],3.83 pM
G3V/M60K-monoFc (Fc fusion),HEK-blue EC50 (pM) - IL-18BP,[1],0.15 pM
same,HEK-blue EC50 (pM) + 300 nM IL-18BP,[2],1.57 pM
"IL-18 variant S36E, D40A, N41M, K53T, S55Y, P107S (ligand)","HEK-Blue activity, No BP, DF-10000",[1],0.24
same,"HEK-Blue activity, No BP, DF-100,000",[1],0.11
same,"HEK-Blue activity, No BP, DF-1,000,000",[1],0.09
same,"HEK-Blue activity, +100 nM BP, DF-10000",[3],0.25
same,"HEK-Blue activity, +100 nM BP, DF-100,000",[3],0.11
same,"HEK-Blue activity, +100 nM BP, DF-1,000,000",[3],0.09
same,"Ratio (-BP/+BP), DF-10000",[3],0.97
same,"Ratio (-BP/+BP), DF-100,000",[3],1.02
same,"Ratio (-BP/+BP), DF-1,000,000",[3],1.01
WT-hIL-18-monoFc (Fc fusion),"HEK-Blue activity, No BP, DF-10000",[1],2.24
same,"HEK-Blue activity, No BP, DF-100,000",[1],2.08
same,"HEK-Blue activity, No BP, DF-1,000,000",[1],1.75
same,HEK-blue EC50 (pM) - BP,[1],0.458 pM
same,HEK-blue EC50 (pM) - IL-18BP,[1],0.29 pM
same,"HEK-Blue activity, +100 nM BP, DF-10000",[2],0.92
same,"HEK-Blue activity, +100 nM BP, DF-100,000",[2],0.29
same,"HEK-Blue activity, +100 nM BP, DF-1,000,000",[2],0.24
same,HEK-blue EC50 (pM) + 300 nM BP,[2],221 pM
same,HEK-blue EC50 (pM) + 300 nM IL-18BP,[2],> 500 pM
same,"Ratio (-BP/+BP), DF-10000",[2],2.45
same,"Ratio (-BP/+BP), DF-100,000",[2],7.16
same,"Ratio (-BP/+BP), DF-1,000,000",[2],7.32
same,HEK-blue EC50 (pM) - BP,[4],0.495 pM
same,HEK-blue EC50 (pM) + 1000 nM BP,[5],99.8 pM
WT-monoFc (Fc fusion),HEK-blue EC50 (pM) - BP,[1],0.52 pM
same,HEK-blue EC50 (pM) + 300 nM BP,[3],> 500 pM
same,Ratio,[3],947
WT-monoFc (wild-type human IL-18 linked to monoFc) (Fc fusion),"EC50 (pM), PBMC IFN gamma assay, + 300 nM BP",[3],611 pM
same,"Ratio (HEK-blue EC50, + 100 nM BP against - BP)",[3],520 and 360 and 338
same,"EC50 (pM) - BP, HEK-blue re-screening",[6],0.51 pM and 0.43 pM and 0.6 pM
same,"EC50 (pM), PBMC IFN gamma assay",[6],96.8 pM
hDR-18-monoFc (Fc fusion),"Activity, No BP, DF-100000",[1],2
same,"Activity, No BP, DF-500000",[1],1.91
same,"Activity, No BP, DF-2500000",[1],1.49
same,"HEK-Blue activity, No BP, DF-10000",[1],2.19
same,"HEK-Blue activity, No BP, DF-100,000",[1],2.26
same,"HEK-Blue activity, No BP, DF-1,000,000",[1],2.16
same,"HEK-Blue activity, +100 nM BP, DF-10000",[2],2.21
same,"HEK-Blue activity, +100 nM BP, DF-100,000",[2],2.19
same,"HEK-Blue activity, +100 nM BP, DF-1,000,000",[2],2.1
same,"Ratio (-BP/+BP), DF-10000",[2],0.99
same,"Ratio (-BP/+BP), DF-100,000",[2],1.03
same,"Ratio (-BP/+BP), DF-1,000,000",[2],1.03
same,"Activity, +100 nM BP, DF-1000002",[7],2.01
same,"Activity, +100 nM BP, DF-5000003",[7],1.95
same,"Activity, +100 nM BP, DF-25000004",[7],1.59
same,"Ratio (-BP/+BP), DF-1000005",[7],0.99
same,"Ratio (-BP/+BP), DF-5000006",[7],0.98
same,"Ratio (-BP/+BP), DF-25000007",[7],0.93
"hIL18(G3P, E6K, D54Y, S55P, T63S, N91S, R104Q)-monoFc (Fc fusion)","EC50 (pM), PBMC IFN gamma assay, + 300 nM BP",[3],74.5 pM
same,"EC50 (pM), PBMC IFN gamma assay",[6],19.5 pM
"hIL18(G3P, E6K, D54Y, S55P, T63S, N91S, R104Q, Q154R)-monoFc (Fc fusion)","EC50 (pM), PBMC IFN gamma assay, + 300 nM BP",[3],64.1 pM
same,"EC50 (pM), PBMC IFN gamma assay",[6],85.6 pM
wt-monoFc (from UniProt Q14116 37-193; P01857 119-327) (Fc fusion),"Activity, No BP, DF-100000",[1],1.94
same,"Activity, No BP, DF-500000",[1],1.43
same,"Activity, No BP, DF-2500000",[1],0.77
same,"Activity, +100 nM BP, DF-1000002",[7],0.11
same,"Activity, +100 nM BP, DF-5000003",[7],0.08
same,"Activity, +100 nM BP, DF-25000004",[7],0.07
same,"Ratio (-BP/+BP), DF-1000005",[7],17.4
same,"Ratio (-BP/+BP), DF-5000006",[7],17.4
same,"Ratio (-BP/+BP), DF-25000007",[7],10.5
